According to paper PMC5227068:

How the values were obtained:
[1] = molecular target: human EPCR on CHO745-EPCR cells (human) (UniProt Q9UNN8); test: flow cytometry on cells; competition: CHO745-EPCR cells coincubated for 30 min with 50 μg/ml (660 nM) or 250 μg/ml (3.3 µM) CIDR domains and 25 μg/ml (446 nM) APC; APC detected by anti-human protein C antibody
[2] = molecular target: recombinant human CD36 (human) (UniProt P16671); test: BLI; Octet Qke; hisCD36 immobilised on Ni-NTA biosensors, CIDR domains in solution; kinetics buffer (PBS, 0.02% Tween-20, 100 μg/ml bovine serum albumin, 0.005% sodium azide); association 600 or 900 s, dissociation 300 to 600 s; 1:1 fit
recombinant human CD36 (human), sequence (P16671 whole entry, the tested form may be a part): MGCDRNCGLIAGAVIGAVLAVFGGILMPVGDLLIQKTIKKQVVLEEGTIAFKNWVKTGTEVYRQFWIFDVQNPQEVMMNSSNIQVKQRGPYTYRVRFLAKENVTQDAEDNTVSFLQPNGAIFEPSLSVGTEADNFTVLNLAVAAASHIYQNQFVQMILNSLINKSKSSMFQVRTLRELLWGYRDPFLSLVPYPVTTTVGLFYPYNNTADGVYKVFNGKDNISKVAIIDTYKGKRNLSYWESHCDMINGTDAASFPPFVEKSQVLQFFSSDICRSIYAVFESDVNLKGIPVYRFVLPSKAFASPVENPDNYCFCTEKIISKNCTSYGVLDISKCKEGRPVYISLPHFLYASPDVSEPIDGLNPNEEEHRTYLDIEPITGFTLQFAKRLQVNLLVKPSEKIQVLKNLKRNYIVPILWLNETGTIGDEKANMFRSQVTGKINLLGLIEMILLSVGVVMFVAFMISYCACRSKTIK

[3] = molecular target: recombinant human CD36 (human) (UniProt P16671); test: BLI; Octet Qke; hisCD36 immobilised on Ni-NTA biosensors, CIDR domain in kinetics buffer (PBS, 0.02% Tween-20, 100 ug/ml BSA, 0.005% sodium azide); association 600 or 900 s, dissociation 300 to 600 s; double-reference subtracted data fitted to a 1:1 binding model
[4] = molecular target: recombinant human endothelial protein C receptor (human) (UniProt Q9UNN8); test: BLI; Octet Qke; EPCR on the biosensor, CIDR domain in solution; protocol as reported previously (ref. 40); double-reference subtracted data fitted to a 1:1 binding model
recombinant human endothelial protein C receptor (human), sequence (Q9UNN8 18-238): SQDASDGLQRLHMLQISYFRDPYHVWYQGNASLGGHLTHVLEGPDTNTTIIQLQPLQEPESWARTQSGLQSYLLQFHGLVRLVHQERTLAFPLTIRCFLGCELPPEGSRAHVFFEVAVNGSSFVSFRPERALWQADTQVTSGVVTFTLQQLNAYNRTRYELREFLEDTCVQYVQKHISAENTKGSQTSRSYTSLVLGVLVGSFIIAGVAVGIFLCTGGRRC

human EPCR on CHO745-EPCR cells (human), sequence (Q9UNN8 18-238): as above

Substance: P. falciparum var07 CIDRα1.4 (domain or fragment)
- percent reduction of APC binding at 50 μg/ml CIDR [1]: 85%
- percent reduction of APC binding at 250 μg/ml CIDR [1]: 98%

Substance: P. falciparum var14 CIDRα5 (domain or fragment)
- Kd [2]: 3.2 nM
- koff [3]: 2.99e-05 s⁻¹
- kon [3]: 9280 M⁻¹ s⁻¹

Substance: P. reichenowi var71 CIDRα1.4 (domain or fragment)
- koff [4]: 0.000268 s⁻¹
- kon [4]: 11800 M⁻¹ s⁻¹
